In general, Kd refers to the concentration at which binding is half-saturated. One may read the EC50 as the concentration giving half of the maximal effect. Lower therefore signals an effect from little substance. A word on the IC50: it is the midpoint of a concentration-inhibition curve. Read a high IC50 as lower potency. As usually defined, the koff is the first-order rate constant of dissociation. Usually kon stands for a measure of how fast the partners come together.

From patent US20230167182A1 (BIOSION, published 2023) come the findings set out here.

The target in experiment [1] is T1, recombinant human IL6R-his (human, UniProt P08887 20-365).
T1 construct: In house made; the entry includes the C-terminal His tag; also called human IL6R-his protein
T1 sequence: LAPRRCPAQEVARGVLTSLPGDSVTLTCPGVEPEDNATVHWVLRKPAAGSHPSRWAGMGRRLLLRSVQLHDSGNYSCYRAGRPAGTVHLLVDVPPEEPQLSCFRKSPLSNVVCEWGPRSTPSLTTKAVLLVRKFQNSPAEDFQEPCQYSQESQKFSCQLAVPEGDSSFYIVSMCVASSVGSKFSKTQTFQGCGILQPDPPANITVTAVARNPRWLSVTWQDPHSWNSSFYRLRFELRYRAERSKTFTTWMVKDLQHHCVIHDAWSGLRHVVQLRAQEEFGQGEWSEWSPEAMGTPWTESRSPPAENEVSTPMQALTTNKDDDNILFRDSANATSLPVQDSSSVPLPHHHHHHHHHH
Kind of experiment: SPR Biacore T200; antibody captured on Protein G chip, antigen in flow, 1:1 fit. On the procedure: (§1) Un-reacted moieties on the biosensor surface were blocked with ethanolamine. […] Then, serially diluted recombinant human IL6R-his (in house made, amino acid sequence set forth in SEQ ID NO: 44) or macaca IL6R-his protein (in house made, amino acid sequence set forth in SEQ ID NO: 45), starting at 100 nM with a 2-fold serial dilution in HBS-EP⁺ buffer (provided by Biacore), was flowed onto the chip at a flow rate of 30 μL/min. The antigen-antibody association kinetics was followed for 2 minutes and the dissociation kinetics was followed for 10 minutes. The association and dissociation curves were fit to a 1:1 Langmuir binding model using BIAcore evaluation software.
On the technique in general: SPR reads the build-up and loss of mass on a sensor chip optically.

Experiment [2] concerns the target T2, macaca IL6R-his protein (macaca mulatta).
T2 chain: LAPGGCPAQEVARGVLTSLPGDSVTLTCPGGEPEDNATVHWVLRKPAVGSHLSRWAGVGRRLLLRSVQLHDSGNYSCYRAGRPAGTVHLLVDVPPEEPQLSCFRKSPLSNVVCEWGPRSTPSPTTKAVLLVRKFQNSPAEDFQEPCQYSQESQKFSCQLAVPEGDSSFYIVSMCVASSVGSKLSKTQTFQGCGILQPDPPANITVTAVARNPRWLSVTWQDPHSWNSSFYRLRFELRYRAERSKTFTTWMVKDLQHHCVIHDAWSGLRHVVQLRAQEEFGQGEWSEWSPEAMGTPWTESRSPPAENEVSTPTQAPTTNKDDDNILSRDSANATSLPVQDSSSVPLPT
The description is as above. On the procedure:
as §1

The target in experiment [3] is T1, recombinant human IL6R-his. Kind of experiment: SPR Biacore; antibody captured by anti-human IgG on CM5, human IL6R-his at 100 nM. On the procedure:
as §1
The recombinant human IL6R-his (amino acid sequence set forth in SEQ ID NO: 44) at the concentration of 100 nM instead of serially diluted recombinant human IL6R-his, was flowed onto the chip at a flow rate of 30 μL/min.

Experiment [4] addresses T3, human IL6R-Fc protein (human, biotin-labeled in the ELISAs (sites not given)).
T3 construct: In house made; also called biotin-labeled human IL6R-Fc protein
Kind of experiment: capture ELISA: antibody captured on anti-IgG F(ab')2 coated plate, then biotin-labeled human IL6R-Fc, streptavidin-HRP. On the procedure:
For the capture ELISA, 96-well micro plates were coated with 2 μg/ml AffiniPure Goat Anti-Mouse IgG, F(ab′)₂ fragment specific (Jackson ImmunoResearch Laboratories, Inc., Cat #115-005-072) in PBS, 100 μl/well, and incubated for 2 hours at 37° C. Plates were washed once with wash buffer (PBS+0.05% v/v Tween-20, PBST) and then blocked with 200 μl/well blocking buffer (5% w/v non-fatty milk in PBST) overnight at 4° C. […] Plates containing captured anti-IL6R antibodies were incubated with biotin-labeled human IL6R-Fc protein (prepared in house, SEQ ID NO: 43, 39.5 ng/ml in 2.5% w/v non-fatty milk in PBST, 100 μl/well) for 40 minutes at 37° C., washed 4 times, and incubated with streptavidin conjugated HRP (1:10000 dilution in PBST, Jackson ImmunoResearch Laboratories, Inc., Cat #016-030-084, 100 μl/well) for 40 minutes at 37° C. After a final wash, plates were incubated with 100 μl/well ELISA substrate TMB (InnoReagents, Cat #TMB-S-002). The reaction was stopped 3-10 minutes later at room temperature with 50 μl/well 1M H₂SO₄, and the absorbance of each well was read on a microplate reader using dual wavelength mode at 450 nm for TMB and 630 nm as the reference wavelength. Then the OD (450-630) values were plotted against antibody concentration. Data was analyzed using Graphpad Prism software and EC₅₀ values were reported.
For the capture ELISA, AffiniPure Goat Anti-Human IgG, F(ab′)₂ fragment specific (Jackson Immuno Research, Cat #109-005-097) was used instead of AffiniPure Goat Anti-Mouse IgG, F(ab′)₂ fragment specific, 100 μl/well.
Background: ELISA stands for enzyme-linked immunosorbent assay.

Experiment [5] has as its target T3, human IL6R-Fc protein. The experiment in a line: benchmark blocking ELISA: antibody pre-incubated with biotin-labeled human IL6R-Fc, added to plate-coated Tocilizumab (competitor: Tocilizumab).
The target in experiment [6] is T1, recombinant human IL6R-his. The experiment in a line: SPR Biacore; antibody at 10 ug/ml captured by anti-human IgG on CM5, human IL6R in flow. On the procedure: as §1
(§2) Cell supernatants containing humanized antibodies were harvested after six days in shaking flasks and directly subjected to BIAcore test following the protocol described above with modifications.

Experiment [7] has as its target T1, recombinant human IL6R-his. Kind of experiment: SPR Biacore; antibody from diluted cell supernatant captured by anti-human IgG on CM5, human IL6R in flow. On the procedure:
as §1, §2

B1: Tocilizumab (antibody, human IgG1, kappa, V domains shown)
VH: QVQLQESGPGLVRPSQTLSLTCTVSGYSITSDHAWSWVRQPPGRGLEWIGYISYSGITTYNPSLKSRVTMLRDTSKNQFSLRLSSVTAADTAVYYCARSLARTTAMDYWGQGSLVTVSS
VL: DIQMTQSPSSLSASVGDRVTITCRASQDISSYLNWYQQKPGKAPKLLIYYTSRLHSGVPSRFSGSGSGTDFTFTISSLQPEDIATYYCQQGNTLPYTFGQGTKVEIKR
notes: In house made; also called benchmark; Actemra
For the molecule B1, the equilibrium dissociation constant (Kd) in experiment [1] was 3.26 nM; in experiment [2] it was 3.8 nM; in experiment [3], 3.26 nM; in experiment [6], 3.81 nM. The same molecule returned an EC50 in experiment [4] of 0.18 nM. Also, the IC50 in experiment [5] is 0.77 nM.

B2: mouse anti-IL6R monoclonal antibody 1H9 (antibody, V domains shown)
VH: QVQLQQPGAELVKPGASVKLSCKASGYTFTSYWMHWVKLRPGQGLEWIGEINPTNGRTNYYEKFKNRATLTADKSSSTAYMQLSSLTFEDSAVYFCAKFHYSRWYFDVWGTGTTVTVSS
VL: DIVMTQSQKFMSTSVGDRVSITCKASQNVGTAVVWYQQKPGQSPKLLINPASNRYTGVPDRFTGSGSGTDFTLTISNMQSEDLADYFCQQYSSYPLTFGAGTKLELK
notes: Mouse hybridoma mAb
B2: the EC50 in experiment [4] turned out to be 0.0834 nM. The IC50 in experiment [5] was found to be 0.394 nM.

B3: Chimeric 1H7 (antibody, human IgG1, kappa, V domains shown)
VH: QVQLQQPGTELVKPGASVKLSCKASGYTFTNYWMHWVKQRPGQGLDWIGEINPTNGRTNYNENFKSKATLTVDKSSSTAYMQLSSLTSEDSAVYYCARLNTHYVFDSWGQGTTLTLSS
VL: EIVLTQSPTTLAASPGEKITFTCSVSSSISSNYLHWYQQKPGFSPKLLISRTSTLASGVPARFSGSGSGTSYSLTIGTMEAEDVATYYCQQGSGIPFTFGSGTKLELKR
notes: Mouse variable regions on human IgG1 / human kappa constant regions; also called chimeric antibody 1H7
Consider B3, for which, in experiment [3], the Kd was determined as 0.4 nM, the koff turned out to be 5.21e-05 s⁻¹ and the kon worked out at 130000 M⁻¹ s⁻¹. Moreover, in experiment [6], the Kd is 0.604 nM, the koff was 0.000123 s⁻¹ and the kon came to 204000 M⁻¹ s⁻¹.

B4: humanized antibody hu1H7-V5 (antibody, human IgG1, kappa, V domains shown)
VH: QVQLVQSGAEVKKPGASVKVSCKASGYTFTNYWMHWVRQAPGQGLEWIGEINPTNGRTNYNENFKSRVTLTVDTSTSTVYMELSSLRSEDTAVYYCARLNTHYVFDSWGQGTLVTVSS
VL: EIVLTQSPGTLSLSPGERATLSCSVSSSISSNYLHWYQQKPGLSPRLLISRTSTLASGIPARFSGSGSGTEYTLTISRMQSEDFAVYYCQQGSGIPFTFGQGTKLEIKR
notes: Human IgG1 / kappa
Turning to B4, in experiment [7], the equilibrium dissociation constant (Kd) is 0.526 nM, the koff came out at 0.000195 s⁻¹ and the kon is 370000 M⁻¹ s⁻¹.
